Test results published in article PMC10978497, “The GTPase activating protein Gyp7 regulates Rab7/Ypt7 activity on late endosomes” (The Journal of Cell Biology, 2024).

Target: T1, guanine nucleotide dissociation inhibitor (GDI) (yeast, UniProt P39958 1-451)
T1 construct: expressed as GST-PreSc-GDI; also called Gdi1; source: E. coli BL21 DE3 (Rosetta), purified (glutathione sepharose, cleaved from the beads with PreScission protease); not shown: GST, N-terminal, cleaved
T1 sequence (looked up): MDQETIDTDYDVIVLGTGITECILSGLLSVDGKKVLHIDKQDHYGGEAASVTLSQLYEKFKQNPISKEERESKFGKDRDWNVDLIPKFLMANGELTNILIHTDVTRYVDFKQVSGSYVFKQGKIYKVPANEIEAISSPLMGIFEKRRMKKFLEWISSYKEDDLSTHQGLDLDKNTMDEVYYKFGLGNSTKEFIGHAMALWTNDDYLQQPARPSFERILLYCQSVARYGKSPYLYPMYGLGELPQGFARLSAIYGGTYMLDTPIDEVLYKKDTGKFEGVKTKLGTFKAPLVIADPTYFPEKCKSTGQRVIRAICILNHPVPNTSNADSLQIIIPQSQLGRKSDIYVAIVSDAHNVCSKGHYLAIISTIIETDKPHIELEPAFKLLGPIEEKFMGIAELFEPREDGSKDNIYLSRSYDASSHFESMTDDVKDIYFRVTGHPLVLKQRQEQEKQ
Test: SEC; after in vitro prenylation (Rab GTPase, GDI, His6-Mrs6, Bet4 His6-TEV-Bet2 at 10:9:1:1, 37°C, 1.5 h) and removal of His6-Mrs6 and Bet4 His6-TEV-Bet2 on Ni2+ resin, the supernatant was loaded on a Superdex200 increase column; prenylation buffer 50 mM HEPES-NaOH pH 7.4, 150 mM NaCl, 1.5 mM MgCl2, 1 mM DTT
Conditions: both partners purified

- binding result: binds
B1: prenylated Ypt7 (natural protein, yeast, UniProt P32939 1-208, looked up)
chain: MSSRKKNILKVIILGDSGVGKTSLMHRYVNDKYSQQYKATIGADFLTKEVTVDGDKVATMQVWDTAGQERFQSLGVAFYRGADCCVLVYDVTNASSFENIKSWRDEFLVHANVNSPETFPFVILGNKIDAEESKKIVSEKSAQELAKSLGDIPLFLTSAKNAINVDTAFEEIARSALQQNQADTEAFEDDYNDAINIRLDGENNSCSC
modifications: prenylated in vitro with geranylgeranyl pyrophosphate (C-terminal prenyl anchor; positions not stated)
notes: Ypt7, the Rab7-like GTPase of yeast; The methods list GST-TEV-Ypt7 (cleaved off the beads with TEV protease), Ypt7-His6 and, once, His6-TEV-Ypt7; I surmise that the prenylated Ypt7 came from GST-TEV-Ypt7, because it has a free C-terminus; also called Rab7-like Ypt7; Ypt7-GDP; source: E. coli BL21 DE3 (Rosetta), purified; preloaded with GDP and prenylated in vitro (Mrs6, Bet4-Bet2, geranylgeranyl …)
